# Test results from patent US20150218257A1.
# Columns and labels:
# Test in all cases: cell-based or functional assay
# [1] = molecular target: HIV-1 JR-FL(E168K) Env on pseudovirus (HIV-1 strain JR-FL)
# [2] = molecular target: HIV-1 JR-CSF Env (gp160), on transfected 293/293T cells or on JR-CSF pseudovirus (HIV-1 isolate JR-CSF) (UniProt P20871)
# [3] = molecular target: HIV-1 ADA Env (gp160), on transfected 293 cells or on ADA pseudovirus (HIV-1 strain ADA)
# [4] = molecular target: HIV-1 92RW020 Env on pseudovirus (HIV-1 strain 92RW020)
# [5] = molecular target: HIV-1 JR-CSF(Y318A) Env on pseudovirus (HIV-1 isolate JR-CSF) (UniProt P20871)
# [6] = molecular target: HIV-1 JR-CSF(I309A) Env on pseudovirus (HIV-1 isolate JR-CSF) (UniProt P20871)
Binder,"IC50 (ug/ml), pseudovirus neutralisation, TZM-bl assay [1]","IC50 (ug/ml), pseudovirus neutralisation, TZM-bl assay [2]","IC50 (ug/ml), pseudovirus neutralisation, TZM-bl assay [3]","IC50 (ug/ml), pseudovirus neutralisation, TZM-bl assay [4]","IC50 (ug/ml), pseudovirus neutralisation, TZM-bl assay [5]","IC50 (ug/ml), pseudovirus neutralisation, TZM-bl assay [6]"
"1503_H05 (PG16) antibody, sister clone of 1443_C16 (antibody, V domains shown) VH: QEKLVESGGGVVQPGGSLRLSCLASGFTFHKYGMHWVRQAPGKGLEWVALISDDGMRKYHSDSMWGRVTISRDNSKNTLYLQFSSLKVEDTAMFFCAREAGGPIWHDDVKYYDFNDGYYNYHYMDVWGKGTIVTVSS VL: QSALTQPASVSGSPGQTITISCNGTRSDVGGFDSVSWYQQSPGKAPKVMVFDVSHRPSGISNRFSGSKSGNTASLTISGLHIEDEGDYFCSSLTDRSHRIFGGGTKVTVLG",0.002 µg/mL,0.001 µg/mL,0.003 µg/mL,0.02 µg/mL,> 1 µg/mL,> 1 µg/mL
"1456_A12 (PG16) antibody, sister clone of 1443_C16 (antibody, V domains shown) VH: HEQLVEAGGGVVQPGGSLRLSCLASGFTFHKYGMHWVRQAPGKGLEWVALISDDGMRKYHSDSMWGRVTISRDNSKNTLYLQFSSLRVEDTAMFFCAREAGGPIWHDDVKYYDFNDGYYNYHYMDVWGKGTKVTVSS VL: QSALTQPASVSGSPGQTITISCNGTSRDVGGFDSVSWYQQSPGKAPKVMVFDVSHRPSGMSNRFSGSKSGNTASLTISGLHIEDEGDYFCSSLTDRSHRIFGGGTKLTVLG",0.003 µg/mL,0.001 µg/mL,0.005 µg/mL,0.05 µg/mL,> 1 µg/mL,> 1 µg/mL
"1489_I13 (PG16) antibody, sister clone of 1443_C16 (antibody, V domains shown) VH: QEQLLESGGGVVQPGGSLRLSCLASGFTFHKYGMHWVRQAPGKGLEWVALISDDGMRKYHSNSMWGRVTISRDNSKNTLYLQFSSLKVEDTAMFFCAREAGGPIWHDDVKYYDFNDGYYNYHYMDVWGKGTTVTVSS VL: QSALTQPASVSGSPGQTITISCNGTSSDVGGFDSVSWYQQSPGKAPKVMVFDVSHRPSGISNRFSGSKSGNTASLTISGLHIEDEGDYFCSSLTDRSHRIFGGGTKVTVLG",0.005 µg/mL,0.002 µg/mL,0.008 µg/mL,0.03 µg/mL,> 1 µg/mL,> 1 µg/mL
"1469_M23 (PG16) antibody, sister clone of 1443_C16 (antibody, V domains shown) VH: QEKLVESGGGVVQPGGSLRLSCLASGFTFHKYGMHWVRQAPGKGLEWVALISDDGMRKYHSDSMWGRVTISRDNSKNTLYLQFSSLKVEDTAMFFCAREAGGPIWHDDVKYYDFNDGYYNYHYMDVWGKGTTVTVSS VL: QSALTQPASVSGSPGQTITISCNGTRSDVGGFDSVSWYQQSPGRAPKVMVFDVSHRPSGISNRFSGSKSGNTASLTISGLHIEDEGDYFCSSLTDRSHRIFGGGTKLTVLG",0.005 µg/mL,0.002 µg/mL,0.005 µg/mL,0.05 µg/mL,> 1 µg/mL,> 1 µg/mL
